Target: RAS (endogenous RAS of human pancreatic PANC-1 cells and PANC-1 xenograft tumours, detected with a pan-RAS antibody)
Assay: cell-based or functional assay

RRSP protein expressed in cells from rrsp mRNA delivered by PPDP2 nanoparticles (from UniProt A0A2S3R7M0 3596-4089) (enzyme)
cell proliferation measured by crystal violet staining, PANC-1 cells, 1.25 µg PPDP2-rrsp: > 60 % reduction | total levels of intact RAS, western blot with pan-RAS antibody, PANC-1 cells treated with PPDP2-rrsp: 40 % reduction
